In patent publication US20050089880:

Legend:
[1] = target: T1, N-terminus of rat macro-H2A peptide
T1 chain: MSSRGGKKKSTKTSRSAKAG

[2] = target: T2, mutated H3 (K9L) N-terminal peptide
T2 chain: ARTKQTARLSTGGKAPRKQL

[3] = target: wild-type N-terminus of human histone H3 peptide (aa 1-20)
[4] = target: T3, N-terminus of human CENP-A peptide
T3 chain: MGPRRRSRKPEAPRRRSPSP

B1: triple myc-tagged full-length human SUV39H1 (aa 3-412) (protein)
chain: ENLKGCSVCCKSSWNQLQDLCRLAKLSCPALGISKRNLYDFEVEYLCDYKKIREQEYYLVKWRGYPDSESTWEPRQNLKCVRILKQFHKDLERELLRRHHRSKTPRHLDPSLANYLVQKAKQRRALRRWEQELNAKRSHLGRITVENEVDLDGPPRAFVYINEYRVGEGITLNQVAVGCECQDCLWAPTGGCCPGASLHKFAYNDQGQVRLRAGLPIYECNSRCRCGYDCPNRVVQKGIRYDLCIFRTDDGRGWGVRTLEKIRKNSFVMEYVGEIITSEEAERRGQIYDRQGATYLFDLDYVEDVYTVDAAYYGNISHFVNHSCDPNLQVYNVFIDNLDERLPRIAFFATRTIRAGEELTFDYNMQVDPVDMESTRMDSNFGLAGLPGSPKKRVRIECKCGTESCRKYLF
For B1, the “in vitro HMTase activity (transfer of 14C-methyl label to free histones, fluorography)” value (histone H3) was “indicating selective transfer of the methyl-label to H3”.

B2: murine GST-Suv39h1 product comprising aa 7-221 (protein)
chain: GCSVCCKSSWNQLQDLCRLAKLSCPALGVSKKNLYDFEVEYLCDYKKIREQEYYLVKWRGYPDSENTWEPRQNLKCIRVLKQFHKDLERELVRRHRRSKPPRHLDPNLANYLVQKAKQRRALQRWEQELNAKRSHLGRITVENEVDLDGPPRSFVYINEYRVGEGITLNQVAVGCECQDCLLAPTGGCCPGASLHKFAYNDQGQVRLKAGQPIYE
In the case of B2, the “in vitro HMTase activity (free histones, fluorography)” value (histone H3) is reported as “proved negative, even at higher protein concentrations”.

B3: triple myc-tagged C-terminally truncated SUV39H1 protein (aa 3-118) (protein)
chain: ENLKGCSVCCKSSWNQLQDLCRLAKLSCPALGISKRNLYDFEVEYLCDYKKIREQEYYLVKWRGYPDSESTWEPRQNLKCVRILKQFHKDLERELLRRHHRSKTPRHLDPSLANYL
B3 was tested, and the “in vitro HMTase activity (transfer of 14C-methyl label to free histones, fluorography)” value (histone H3) was “no signals were detected with extracts from a HeLa cell line that expresses only the N-terminal third of SUV39H1 (aa 3-118)”.

B4: murine GST-Suv39h1(aa 82-412) (protein)
chain: CIRVLKQFHKDLERELVRRHRRSKPPRHLDPNLANYLVQKAKQRRALQRWEQELNAKRSHLGRITVENEVDLDGPPRSFVYINEYRVGEGITLNQVAVGCECQDCLLAPTGGCCPGASLHKFAYNDQGQVRLKAGQPIYECNSRCCCGYDCPNRVVQKGIRYDLCIFRTNDGRGWGVRTLEKIRKNSFVMEYVGEIITSEEAERRGQIYDRQGATYLFDLDYVEDVYTVDAAYYGNISHFVNHSCDPNLQVYNVFIDNLDERLPRIAFFATRTIWAGEELTFDYNMQVDPVDMESTRMDSNFGLAGLPGSPKKRVRIECKCGTTACRKYLF
B4 was tested, and the “in vitro methylation of individual histones (fluorography)” value (“in vitro methylation … (fluorography)” below) (histone H4) was “no signals are detected with H2A, H2B or H4”, the “in vitro methylation of N-terminal peptides (SDS-PAGE, fluorography)” value (shortened to “in vitro methylation … (SDS-PAGE, fluorography)”) [1] was “no signals were detected with the CENP-A or macroH2A peptides, or with insulin” and the “in vitro methylation … (fluorography)” value (histone H1) was “A weak signal is present if H1 was used as the sole substrate”. The “in vitro methylation … (fluorography)” value (histone H2A) was “no signals are detected with H2A, H2B or H4”, the “in vitro methylation … (SDS-PAGE, fluorography)” value (insulin) was “no signals were detected with the CENP-A or macroH2A peptides, or with insulin” and the “in vitro methylation … (fluorography)” value (histone H2B) was “no signals are detected with H2A, H2B or H4”. The “in vitro methylation … (SDS-PAGE, fluorography)” value [2] was “the mutated H3 (K9L) peptide was not a substrate”, the “in vitro HMTase activity (free histones, fluorography)” value (histone H3) was “maintained HMTase activity (although at a reduced level as compared to transfected SUV39H1)” and the “in vitro methylation … (fluorography)” value (histone H3) was “H3 is specifically methylated by GST-Suv39h1(aa 82-412)”. For the same protein, the “3H-incorporation of individual amino acids (microsequencing of the in vitro methylated peptide, scintillation counting)” value [3] was “The results confirmed selective transfer of methyl-label to lysine 9”, the “in vitro methylation … (SDS-PAGE, fluorography)” value [3] was “selective methylation of the wild-type H3 peptide” and the “in vitro methylation … (SDS-PAGE, fluorography)” value [4] was “no signals were detected with the CENP-A or macroH2A peptides, or with insulin”.
